The test system of data set [1] is Mka PolB 3'-5' exonuclease activity. Kind of data set: Effect of salts on 3'-5' exonuclease activity of Mka PolB. The class given is biochemical, Methanopyrus kandleri. The method, then:
(§1) A 3′→5′ exonuclease activity of polB polymerase was measured at the same conditions as in the primer extension assay, except omitting dideoxynucleotides. A fluorescent primer:
Conclusions: • 1. KGlu inhibits the 3′-5′ exonuclease activity of Mka PolB, while NaCl stimulates it. • 2. KGlu, diphosphoglycerate, and Mka PCNA (see below) increase the polymerase activity of PolB. • 3.

For data set [2], the system named is DNA duplex of FIG. 16 (PTJ). Put plainly: Initial rates of primer extension reactions in salts (inhibition of polymerases and chimeras by NaCl, KCl, K-Glu). The format is biochemical. The method, then:
The polymerase activities of the four chimeras were tested by measuring initial rates of primer extension reactions. The reactions were carried out at low concentrations of substrate, when the initial rates were proportional both to total protein and PTJ concentrations. When [PTJ] is much less than Kmapp, the initial rate is determined as in Equation 1: v1=kapp/Kmapp*[Et]*[PTJ]1 Eq. 1 • where Kmapp and kapp are apparent Michaelis and catalytic constants, respectively.
The concentrations of sodium chloride (NaCl), potassium chloride (KCl) and potassium glutamate (K-Glu) were varied to assess inhibition of the Stoffel fragment and KlenTaq, and the four chimeras by salts, and to estimate the effects of the HhH domains.
Experimental values of initial polymerization rates were analyzed by nonlinear regression analysis using Equation 2: [formula] where v and v0 are initial primer extension rates with and without salt, respectively, Ki is the apparent inhibition constant; and α is the cooperativity parameter.
In Table 2, to take into account the activation of Pfu polymerase and the PfuC2 hybrid by KGlu (data entries marked with an asterisk (*), the experimental values of initial polymerization rates were analyzed by nonlinear regression using the Equation 3: [formula]
where v and v0 are initial primer extension rates with and without salt, respectively; Ki is an apparent inhibition constant, α is a parameter of cooperativity, β and γ are parameters of activation. Since γ≅2, it is likely that two ions of Glu^− bind to the Pfu polymerase catalytic domain without inhibiting the polymerase activity.

A further data set deals with M.K. polB DNA polymerase (Methanopyrus kandleri, UniProt Q8TWJ5). Kind of data set: Effects of media components on M.K. polB DNA polymerase activity (primer extension). The class given is biochemical. The method, then: (§2) DNA polymerase reaction mixtures (15-20 μl) contained dATP, dTTP, dCTP, and dGTP (1 mM each), 4.5 mM MgCl2, detergents Tween 20 and Nonidet P-40 (0.2% each), fixed concentrations of PTJ—duplex, other additions, as indicated, and appropriate amounts of polB in 30 mM Tris-HCl buffer pH 8.0 (25° C.). The background reaction mixtures contained all components except DNA polymerases. Primer extensions were carried out for a preset time at 75° C. in PTC-150 Minicycler (MJ Research, Inc.; Waltham, Mass.). 5 μl samples were removed and chilled to 4° C. followed by immediate addition of 20 μl of 20 mM EDTA. The samples were desalted by centrifugation through Sephadex G-50 spun columns, diluted, and analyzed on a ABI Prism 377 DNA sequencer (Applied BioSystems; Foster City, Calif.). For each sample, raw data were extracted from the sequencer trace files with the program Chromas 1.5 (Technelysium Pty Ltd., Australia), and the fluorescent signals were analyzed by our nonlinear regression data analysis programs written in Fortran. The programs applied Powell algorithms to approximate the signals by a number of Gaussian peaks and calculate integral fluorescent intensities for each product peak. The total amount of fluorescent products for each time of incubation was determined, and the initial rates of extension were calculated.
Chain of M.K. polB DNA polymerase (Q8TWJ5 entry or part of it): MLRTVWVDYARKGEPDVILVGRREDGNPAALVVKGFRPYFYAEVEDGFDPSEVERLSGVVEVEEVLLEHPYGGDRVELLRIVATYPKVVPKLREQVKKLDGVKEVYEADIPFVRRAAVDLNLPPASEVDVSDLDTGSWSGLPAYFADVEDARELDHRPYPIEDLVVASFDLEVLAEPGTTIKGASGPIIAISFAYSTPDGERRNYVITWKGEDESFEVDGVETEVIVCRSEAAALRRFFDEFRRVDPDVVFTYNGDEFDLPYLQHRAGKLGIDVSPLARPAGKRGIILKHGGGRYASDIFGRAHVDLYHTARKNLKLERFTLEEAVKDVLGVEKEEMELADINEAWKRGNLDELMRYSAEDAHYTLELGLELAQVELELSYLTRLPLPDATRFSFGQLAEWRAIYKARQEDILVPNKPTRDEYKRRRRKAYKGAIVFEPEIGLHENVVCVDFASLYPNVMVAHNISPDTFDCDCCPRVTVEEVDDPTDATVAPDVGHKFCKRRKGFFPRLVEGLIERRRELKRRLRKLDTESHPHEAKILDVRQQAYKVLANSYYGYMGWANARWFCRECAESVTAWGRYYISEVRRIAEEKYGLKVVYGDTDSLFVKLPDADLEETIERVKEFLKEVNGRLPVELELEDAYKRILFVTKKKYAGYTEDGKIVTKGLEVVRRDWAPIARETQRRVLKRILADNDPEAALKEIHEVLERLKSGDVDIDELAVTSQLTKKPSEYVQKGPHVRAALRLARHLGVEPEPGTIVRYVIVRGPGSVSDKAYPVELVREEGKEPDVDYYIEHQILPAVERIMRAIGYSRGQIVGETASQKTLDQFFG
(§3) The next two tables (Table 4 and 5) display effects of various media components on M.K. polB DNA polymerase activity. Initial rates of primer extension reaction were measured as described by Pavlov et al., 2002.

Another data set deals with polB DNA polymerase. Put plainly: Thermostability of polB DNA polymerase in various media. The format is biochemical, Methanopyrus kandleri. The conditions noted are these: 1 M Betaine, potassium glutamate, 100° C. On the procedure:
To determine DNA polymerase activity and thermostability of DNA polymerase polB in various media. Proteins in 25 μl of 20 mM Tris-HCl buffer (pH 8.0 at 25° C.) containing indicated concentrations of salts and betaine were incubated in PTC-150 Minicycler (MJ Research) at 95° C. or 100° C. 4 μl samples were removed at defined times of incubation and assayed for primer extension activity.
The stabilizing effect of betaine is diminished in the presence of organic solvents DMSO and formamide.

Data set [3] deals with fluorescent primer *FL-GTAATACGACTCACTATAGGG
Put plainly: 3'→5' exonuclease activity of polB. The class given is biochemical. The method, then: as §1
was incubated with the enzyme at defined times. Then, the amounts of formed products were calculated, and the initial rates of hydrolysis were found, as in case of primer extension. It is interesting that polB was able to cleave off only 9 nucleotides of the primer, that is, the […] primer was the shortest substrate that polB could process.

In data set [4] the target is T1, M. kandleri AV19 PCNA (MK1030), DNA polymerase sliding clamp.
T1 chain: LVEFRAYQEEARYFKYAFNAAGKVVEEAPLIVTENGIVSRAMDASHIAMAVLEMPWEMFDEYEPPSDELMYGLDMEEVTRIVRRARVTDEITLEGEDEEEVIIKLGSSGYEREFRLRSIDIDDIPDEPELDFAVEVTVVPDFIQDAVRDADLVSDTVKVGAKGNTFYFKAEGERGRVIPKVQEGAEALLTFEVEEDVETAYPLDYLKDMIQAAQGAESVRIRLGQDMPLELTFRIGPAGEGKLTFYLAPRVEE

In data set [5] the test system is fluorescent duplex substrate containing a primer-template junction (PTJ). Kind of data set: Primer extension assay of PolB DNA polymerase activity. The format is biochemical.
Data set [6] has the same test system. The data set is described as above. The format is biochemical. On the procedure: A primer extension assay was applied with a fluorescent duplex substrate containing a primer-template junction (PTJ). The duplex shown in FIG. 18 was prepared by annealing a 5′-end labeled with fluorescein 20-nt long primer with a 40-nt long template:
as §2, §3
Table 6 illustrates the dependency of initial rates of primer extension for Duplex 2 shown in FIG. 17 on temperature of the reaction. Initial rates of primer extension reaction were measured as described by Pavlov et al., 2002.
This is another data set of the same source.

Read-outs that look alike come from different tables or passages of the source.

Data on eight molecules can be found in patent US20060068386A1, “Complete genome and protein sequence of the hyperthermophile methanopyrus kandleri av19 and monophyly of archael methanogens and methods of use thereof” (priority 2002, published 2006).

For the molecule `[Cl-].[Na+]` [NaCl, sodium chloride], in data set [1], the “effect on 3'-5' exonuclease activity of Mka PolB” value is “stimulates”.
As for “Taq Polymerase: DNA polymerase from Thermus aquaticus [reference compound]”, the “increase of Ki on substituting KCl with KGlu” value in data set [2] (KGlu versus KCl) came out at 4 fold. Also, in data set [2] (NaCl), the “NaCl concentration at which 20% inhibition of primer extension reaction occurs” value was “about 90 mM”.
Broadly, the IC50 is the concentration that gives 50% inhibition. In the case of `N` [NH4OH], on M.K. polB DNA polymerase (M.K. polB DNA polymerase activity, primer extension, read-out: IC50 (Inhibition constants in different media)), the IC50 is < 30 mM.
For the molecule `O=C(O)[C@@H](COP(=O)(O)O)OP(=O)(O)O` [diphosphoglycerate], the “effect on polymerase activity of PolB” value on M.K. polB DNA polymerase is “increase”.
Take `C[N+](C)(C)CC(=O)O` [Betaine]: the “effect on thermostability of polB DNA polymerase” value with polB DNA polymerase is given as “stabilize specifically polB DNA polymerase”.
Turning to `N[C@@H](CCC(=O)[O-])C(=O)[O-].[K+].[K+]` [KGlu, potassium glutamate], the “effect on polymerase activity of PolB” value on M.K. polB DNA polymerase is “increase”. Moreover, the “increase of polymerase activity of polB” value at M.K. polB DNA polymerase (0.8 M of the salt) was “about twenty-fold”. Besides, the “effect on 3'-5' exonuclease activity of Mka PolB” value in data set [1] was “inhibits”.

B1: M. kandleri AV19 DNA polymerase family B (Mka PolB) (MK1039) (protein)
chain: LLRTVWVDYARKGEPDVILVGRREDGNPAALVVKGFRPYFYAEVEDGFDPSEVERLSGVVEVEEVLLEHPYGGDRVELLRIVATYPKVVPKLREQVKKLDGVKEVYEADIPFVRRAAVDLNLPPASEVDVSDLDTGSWSGLPAYFADVEDARELDHRPYPIEDLVVASFDLEVLAEPGTTIKGASGPIIAISFAYSTPDGERRNYVITWKGEDESFEVDGVETEVIVCRSEAAALRRFFDEFRRVDPDVVFTYNGDEFDLPYLQHRAGKLGIDVSPLARPAGKRGIILKHGGGRYASDIFGRAHVDLYHTARKNLKLERFTLEEAVKDVLGVEKEEMELADINEAWKRGNLDELMRYSAEDAHYTLELGLELAQVELELSYLTRLPLPDATRFSFGQLAEWRAIYKARQEDILVPNKPTRDEYKRRRRKAYKGAIVFEPEIGLHENVVCVDFASLYPNVMVAHNISPDTFDCDCCPRVTVEEVDDPTDATVAPDVGHKFCKRRKGFFPRLVEGLIERRRELKRRLRKLDTESHPHEAKILDVRQQAYKVLANSYYGYMGWANARWFCRECAESVTAWGRYYISEVRRIAEEKYGLKVVYGDTDSLFVKLPDADLEETIERVKEFLKEVNGRLPVELELEDAYKRILFVTKKKYAGYTEDGKIVTKGLEVVRRDWAPIARETQRRVLKRILADNDPEAALKEIHEVLERLKSGDVDIDELAVTSQLTKKPSEYVQKGPHVRAALRLARHLGVEPEPGTIVRYVIVRGPGSVSDKAYPVELVREEGKEPDVDYYIEHQILPAVERIMRAIGYSRGQIVGETASQKTLDQFFG
Take B1: the “nucleotides of the primer cleaved off” value in data set [3] was found to be 9 nucleotides. In addition, the “shortest substrate that polB could process” value in data set [3] came out at 13 nt. In addition, in data set [4], the “hydrolysis of the primer annealed to the duplex (3'-5' exonuclease activity of polB)” value was “suppression of hydrolysis of the primer annealed to the duplex”. Further, in data set [5], the “resistance to aggressive chemicals” value is “resistant to aggressive chemicals”. The “use of dUTP for primer extensions” value in data set [6] is on record as “can use dUTP for primer extensions”. Further, the “Initial Rate of Primer Extension” value in data set [6] (0.5 M NaCl) is 0.123 ± 0.003 µM/min; in data set [6] (0.5 M NaCl + PCNA), 0.214 ± 0.014 µM/min; in data set [6] (1 M DPG), 2.17 ± 0.16 µM/min; in data set [6] (1 M KGlu), 2.74 ± 0.18 µM/min; in data set [6] (1 M KGlu, dUTP), 1.82 ± 0.09 µM/min; in data set [6] (Duplex 2 (FIG. 17), 50 °C), 1.01 ± 0.06 µM/min. The “Initial Rate of Primer Extension” value in data set [6] (Duplex 2 (FIG. 17), 55 °C) is 1.08 ± 0.09 µM/min; in data set [6] (Duplex 2 (FIG. 17), 60 °C), 1.12 ± 0.08 µM/min; in data set [6] (Duplex 2 (FIG. 17), 65 °C), 1.23 ± 0.05 µM/min; in data set [6] (Duplex 2 (FIG. 17), 70 °C), 1.01 ± 0.07 µM/min; in data set [6] (Duplex 2 (FIG. 17), 75 °C), 0.95 ± 0.07 µM/min; in data set [6] (Duplex 2 (FIG. 17), 80 °C), 0.92 ± 0.07 µM/min. In addition, the “Initial Rate of Primer Extension” value in data set [6] (Duplex 2 (FIG. 17), 85 °C) worked out at 0.94 ± 0.07 µM/min; in data set [6] (Duplex 2 (FIG. 17), 90 °C), 0.71 ± 0.05 µM/min; in data set [6] (Duplex 2 (FIG. 17), 95 °C), 0.62 ± 0.04 µM/min; in data set [6] (Duplex 2 (FIG. 17), 100 °C), 0.62 ± 0.06 µM/min; in data set [6] (Duplex 2 (FIG. 17), 105 °C) it was 0.55 ± 0.09 µM/min. Further, in data set [6] (Duplex 2 (FIG. 17)), the “temperature up to which primers are extended” value is “up to 105 °C”.

B2: Pfu polymerase: whole size Pfu polymerase (protein, UniProt P61875 1-775, looked up)
chain: MILDVDYITEEGKPVIRLFKKENGKFKIEHDRTFRPYIYALLRDDSKIEEVKKITGERHGKIVRIVDVEKVEKKFLGKPITVWKLYLEHPQDVPTIREKVREHPAVVDIFEYDIPFAKRYLIDKGLIPMEGEEELKILAFDIETLYHEGEEFGKGPIIMISYADENEAKVITWKNIDLPYVEVVSSEREMIKRFLRIIREKDPDIIVTYNGDSFDFPYLAKRAEKLGIKLTIGRDGSEPKMQRIGDMTAVEVKGRIHFDLYHVITRTINLPTYTLEAVYEAIFGKPKEKVYADEIAKAWESGENLERVAKYSMEDAKATYELGKEFLPMEIQLSRLVGQPLWDVSRSSTGNLVEWFLLRKAYERNEVAPNKPSEEEYQRRLRESYTGGFVKEPEKGLWENIVYLDFRALYPSIIITHNVSPDTLNLEGCKNYDIAPQVGHKFCKDIPGFIPSLLGHLLEERQKIKTKMKETQDPIEKILLDYRQKAIKLLANSFYGYYGYAKARWYCKECAESVTAWGRKYIELVWKELEEKFGFKVLYIDTDGLYATIPGGESEEIKKKALEFVKYINSKLPGLLELEYEGFYKRGFFVTKKRYAVIDEEGKVITRGLEIVRRDWSEIAKETQARVLETILKHGDVEEAVRIVKEVIQKLANYEIPPEKLAIYEQITRPLHEYKAIGPHVAVAKKLAAKGVKIKPGMVIGYIVLRGDGPISNRAILAEEYDPKKHKYDAEYYIENQVLPAVLRILEGFGYRKEDLRYQKTRQVGLTSWLNIKKS
modifications: full-length
For B2, the Ki worked out at 42.6 ± 1 mM in data set [2] (inhibition by KCl, read-out: Ki (KCl), apparent inhibition constant) and 51.5 ± 1 mM in data set [2] (inhibition by NaCl, nonlinear regression Eq. 2, read-out: Ki (NaCl), apparent inhibition constant).
